{"source": "paper PMC4125376", "key": {"C[C@H](O)C(=O)O": {"test_system": "C[C@H](O)C(=O)O", "assay": "purified protein", "assay_type": "biochemical, Babesia microti", "conditions": "NAD+"}, "[1]": {"test_system": "NC(=O)c1ccc[n+]([C@@H]2O[C@H](COP(=O)([O-])OP(=O)(O)OC[C@H]3O[C@@H](n4cnc5c(N)ncnc54)[C@H](O)[C@@H]3O)[C@@H](O)[C@H]2O)c1", "assay": "purified protein", "conditions": "varied: cofactor"}}, "data": [{"substance": "Babesia microti lactate dehydrogenase (BmLDH) (Babesia microti strain RI)", "values": [{"measurement": "Km", "setting": "C[C@H](O)C(=O)O", "value": "99.96 ± 22.33", "unit": "mM"}, {"measurement": "Km", "setting": "[1]", "value": "8.76 ± 0.57", "unit": "mM"}]}]}
